These are literature values, as cited in patent publication US20090004190A1, “Rage Fusion Proteins And Methods Of Use” (priority 2006, published 2009).

The conditions of data set [1]: assessed by retention of immunoreactivity sRAGE.

Consider “human sRAGE: human soluble RAGE (SEQ ID NO: 4)”, for which the half-life in plasma result is “about 2 hours”. Also, the half-life result in data set [1] was “less than 2 hours”.
